{"source": "paper doi:10.1101/2022.09.01.504486", "molecular_target": "PfCelTOS", "test": "cross-linking"}
{"substance": "PfCelTOS (natural protein)", "values": [{"measurement": "stoichiometry N", "value": 2}]}
